B1: Hereditary hemochromatosis protein (Homo sapiens), Q30201 (parent)
chain: MGPRARPALLLLMLLQTAVLQGRLLRSHSLHYLFMGASEQDLGLSLFEALGYVDDQLFVFYDHESRRVEPRTPWVSSRISSQMWLQLSQSLKGWDHMFTVDFWTIMENHNHSKESHTLQVILGCEMQEDNSTEGYWKYGYDGQDHLEFCPDTLDWRAAEPRAWPTKLEWERHKIRARQNRAYLERDCPAQLQQLLELGRGVLDQQVPPLVKVTHHVTSSVTTLRCRALNYYPQNITMKWLKDKQPMDAKEFEPKDVLPNGDGTYQGWITLAVPPGEEQRYTCQVEHPGLDQPLIVIWEPSPSGTLVIGVISGIAVFVVILFIGILFIILRKRQGSRGAMGHYVLAERE

Variants of: B1
Conditions: with b2mg_human B2M
In the case of Q283P, the “effect of a mutation on the interaction” value is reported as “disrupting interaction”.

Variants of: B1
Conditions: with tfr1_human TFRC
Q283P was tested, and the “effect of a mutation on the interaction” value was “disrupting interaction”.

— IntAct's records for PubMed 15965644
